Like-named read-outs stand apart in the source and are kept apart here.

This is an account of results in US20260167702A1 (Dana-Farber, published 2026).

Assay [1] concerns the target T1, recombinant full length HA of A/Vietnam/1203/04 (H5-VN04) (influenza A virus A/Vietnam/1203/04 …). The experiment in a line: BLI, IgG1 (legend of FIG. 15).
Assay [2] has as its target T1, recombinant full length HA of ….
Assay [3] shares this target. Nature of the assay: BLI (Octet RED96), IgG1, recombinant HA.
For assay [4], the target named is T2, recombinant full length HA of A/Perth/16/09 (H3-PE09) (influenza A virus A/Perth/16/09 (H3N2)). The experiment in a line: BLI (Octet RED96), IgG1, recombinant HA.
Assay [5] addresses full length HA of A/Vietnam/1203/04 (H5-VN04) expressed from pcDNA3.1 (on 293T cells and on pseudotyped … (influenza A virus A/Vietnam/1203/04)). Nature of the assay: cell-based or functional assay.
The target in assay [6] is T2, recombinant full length HA of …. Nature of the assay: BLI, IgG1 ('further experiments', FIGS. 15A and 15B).
The target in assay [7] is T1, recombinant full length HA of …. The source holds these as a separate data set.
In assay [8] the target is T2, recombinant full length HA of ….
In assay [9] the target is recombinant full length HA of A/mallard/Astrakhan/263/82 (H14-AS82) (influenza A virus …, UniProt P26136 18-568). The experiment in a line: BLI, purified recombinant HAs; antibody format not stated here.

B1: 3I14 IgG1 (wild type) (antibody, V domains shown)
VH: QVQLLESGGGVVQPGRSLRLSCAASGFTFSNYGMHWVRQAPGKGLEWVAIISFDGSKKYYANSVKGRSTISRDNSKNTLSLQMNSLGPEDTALYYCAKLPSPYYFDSRFVWVAASAFHFWGQGILVTVSS
VL: NFMLTQPPSASGTPGQRVTISCSGSSSNIGGNTVHWFQQLPGTAPKLLIYTNSLRPSGVPDRFSGSKSGTSASLAISGLQSEDEADYYCAAWDDSLNGQVFGGGTKLTVL
For B1, the Kd in assay [1] was 1.15 nM; in assay [2], greater than 1 nM; in assay [3] it was 1.02 nM; in assay [4], 0.263 nM; in assay [6], 1.96 nM; in assay [7] it was 1.02 nM. The Kd in [8] is 0.263 nM; in [9], less than 0.1 nM. Further, the off-rate (koff) in [3] came to 0.000387 s⁻¹; in [4] it was 3.99e-05 s⁻¹; in [7], 0.000383 s⁻¹; in assay [8] it was 3.99e-05 s⁻¹. Also, the kon in assay [3] is 327000 M⁻¹ s⁻¹; in assay [4], 152000 M⁻¹ s⁻¹; in assay [7], 375000 M⁻¹ s⁻¹; in assay [8], 152000 M⁻¹ s⁻¹. In addition, the “IC50, neutralization of H5-VN04 pseudovirus” value in assay [5] came out at 0.0816 µg/mL. The “IC50, neutralization of pseudovirus” value in assay [5] was 2.14 µg/mL.
